Legend:
Settings in all cases: both partners purified
human ULBP2 = human ULBP2 (Homo sapiens (Human)., UniProt Q9BZM5); assay: SPR; 23ME-01473 and human ULBPs, as described for NKG2D (Biacore, 37°C, Protein A chip, HBS-P, ligands injected); one-to-one Langmuir model, KD = kd/ka
human ULBP1 = human ULBP1 (Homo sapiens (Human)., UniProt Q9BZM6); assay: as above
human ULBP3 = human ULBP3 (Homo sapiens (Human)., UniProt Q9BZM4); assay: as above
[1] = molecular target: human ULBP6 (allelic isoform not stated) (Homo sapiens, ULBP6-02 allele (R26, …, UniProt Q5VY80)); assay: as above
human ULBP5 = human ULBP5 (Homo sapiens (Human)., UniProt Q6H3X3); assay: as above
human ULBP5, sequence (Q6H3X3 26-218): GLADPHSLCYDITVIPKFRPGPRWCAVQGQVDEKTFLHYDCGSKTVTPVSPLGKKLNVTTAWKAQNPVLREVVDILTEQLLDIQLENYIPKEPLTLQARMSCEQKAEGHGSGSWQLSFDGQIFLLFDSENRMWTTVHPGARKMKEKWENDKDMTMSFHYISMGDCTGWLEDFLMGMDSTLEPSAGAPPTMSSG

biotinylated ULBP5 = biotinylated ULBP5 (human, UniProt Q6H3X3, biotin); assay: ELISA; blocking assay: plates coated with Fc-tagged NKG2D; biotinylated ULBP5 (1.55 nmol/L) or ULBP6-02 (0.15 nmol/L) at its EC80 precomplexed with 23ME-01473 and transferred to the plates; IC50 from dose-response fit
biotinylated ULBP5, sequence (Q6H3X3 26-218): as above

biotinylated ULBP6-02 = biotinylated ULBP6-02 (human, UniProt Q5VY80, biotin); assay: as above
[2] = molecular target: T1, human ULBP6-02 extracellular domain (residues R26-G218) (human, UniProt Q5VY80 26-218, glycosylation of residues N68 and N82 (in the crystal structure)); assay: SPR; Biacore 8K or 8K+, 37°C; Fc-tagged human NKG2D (0.5 μg/mL) captured on Series S Sensor Protein A chip to about 25 RU; threefold serial dilutions of NKG2DLs injected at 30 μL/minute in HBS-P (0.01 mol/L HEPES pH 7.4, 0.15 mol/L NaCl, 0.005% P20); KD from steady-state fit
T1 construct: the construct of the SPR with NKG2D and of the cell assays is only called ULBP6-02 or recombinant ULBP6-02; also called sULBP6-02; sULBP6; source: recombinant, 23andMe, Inc; mammalian expression system
T1 sequence (looked up): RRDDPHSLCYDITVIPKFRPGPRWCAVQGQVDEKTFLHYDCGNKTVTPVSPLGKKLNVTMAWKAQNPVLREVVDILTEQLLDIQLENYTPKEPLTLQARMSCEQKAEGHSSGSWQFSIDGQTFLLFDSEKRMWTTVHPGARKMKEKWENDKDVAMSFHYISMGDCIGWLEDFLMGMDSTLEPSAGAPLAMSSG

human ULBP2, sequence (Q9BZM5 26-217): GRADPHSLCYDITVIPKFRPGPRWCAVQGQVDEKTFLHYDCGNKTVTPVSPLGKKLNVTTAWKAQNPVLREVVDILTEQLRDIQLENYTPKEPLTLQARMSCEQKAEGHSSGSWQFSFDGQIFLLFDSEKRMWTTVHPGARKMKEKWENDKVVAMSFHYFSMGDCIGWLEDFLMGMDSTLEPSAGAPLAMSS
human ULBP3, sequence (Q9BZM4 30-217): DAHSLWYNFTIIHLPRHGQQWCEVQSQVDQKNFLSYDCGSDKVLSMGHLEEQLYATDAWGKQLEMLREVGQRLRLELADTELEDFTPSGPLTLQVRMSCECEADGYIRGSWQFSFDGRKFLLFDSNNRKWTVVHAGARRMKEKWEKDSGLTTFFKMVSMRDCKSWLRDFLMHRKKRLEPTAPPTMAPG
human ULBP1, sequence (Q9BZM6 26-216): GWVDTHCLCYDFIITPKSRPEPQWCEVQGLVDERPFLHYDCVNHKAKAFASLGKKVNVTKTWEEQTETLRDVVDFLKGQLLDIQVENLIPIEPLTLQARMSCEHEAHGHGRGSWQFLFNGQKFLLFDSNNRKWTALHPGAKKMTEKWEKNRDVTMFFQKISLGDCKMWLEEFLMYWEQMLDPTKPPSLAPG

B1: 23ME-01473, humanized Fc effector-enhanced (afucosylated) anti-ULBP6/2/5 antibody (antibody, V domains shown)
VH: EVQLVESGGGLVQPGGSLRLSCAASGFTFSTYGFHWVRQAPGKGLEWVAYISSNSGTIDYADTVKGRFTISRDNAKNSLYLQMNSLRAEDTAVYYCARQGYGFDNWGQGTTVTVSS
VL: DIQLTQSPSSLSASVGDRVTITCSASSRVSYMNWYQQKPGKSPKIWVYGISNLASGVPSRFSGSGSGTDFTFTISSLQPEDIATYYCQQRSSHPLTFGGGTKVEIK
notes: variable domain as in the heavy chain of the Fab m2; human IgG1 heavy constant region; as the light chain of m2; Humanized by CDR grafting from a mouse hybridoma clone; also called Fc-enhanced anti-ULBP6/2/5 antibody; source: CHO FUT8-KO, transfected, purified (Protein A, SEC Superdex 200)
In the case of B1, the Kd (human ULBP2) is reported as 0.23 nM, the binding result (human ULBP1) is reported as “no binding” and the binding result (human ULBP3) is reported as “no binding”. It also gave a Kd [1] of 0.053 nM, a Kd (human ULBP5) of 1.92 nM and an IC50 (biotinylated ULBP5) of 0.31 nM. The IC50 (biotinylated ULBP6-02) was 0.04 nM.

B2: Fc-tagged human NKG2D (Fc fusion, UniProt P26718 73-216, looked up)
chain: IWSAVFLNSLFNQEVQIPLTESYCGPCPKNWICYKNNCYQFFDESKNWYESQASCMSQNASLLKVYSKEDQDLLKLVKSYHWMGLVHIPTNGSWQWEDGSILSPNLLTIIEMQKGDCALYASSFKGYIENCSTPNTYICMQRTV
notes: NK group 2D receptor (NKG2D), human; also called Fc-tagged NKG2D
B2: binds [2].

From publication PMC11927390 (Cancer Research Communications, 2025)
